# Laboratory results as given in patent publication US20210179728A1.
# B1: HALA (antibody, human IgG4 S228P, kappa, V domains shown)
# VH: EVQLVQSGAEVKKPGESLRISCKASGYTFTSYWVHWVRQMPGKGLEWIGNIDPSDSDTHYNQKFKDHVTLSVDKSISTAYLQLSSLKASDTAMYYCVRGGTGTMAWFAYWGQGTLVTVSS
# VL: DVVMTQSPLSLPVTLGQPASISCRSSQSLVHSYGNTYLYWYQQRPGQSPRLLIYRVSNRFSGVPDRFSGSGSGTDFTLKISRVEAEDVGVYFCFQGTHVPYTFGGGTKVEIKR
# Key:
# [1] = molecular target: SIRPa on human monocytes (human) (UniProt P78324); assay: flow cytometry on human monocytes v1/v1, PE anti-human Fc; MFI [B, panel B table]
# [2] = molecular target: SIRPa on human monocytes (human) (UniProt P78324); assay: flow cytometry on human monocytes v1/v1, PE anti-human Fc; percent of stained monocytes [B, panel A table]
binder,measurement,setting,value
B1,EC50,[1],0.59 µg/mL
same,EC50,[2],0.242 µg/mL
